How the values were obtained:
Type in all cases: cell-based
L363 cells = test: JNG assay, co-culture with L363 cells; conditions: co-culture with L363
How it was run: (§1)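 Jurkat-NFAT-GFP (JNG) cells stably expressing SAR constructs via lentiviral transduction and puromycin/blasticidin selection were cocultured with target cells at E:T ~1:2 for ~4–18 h. NFAT-driven GFP was measured by FACS versus parental JNG cells; scores +/- to 5+ denote ~5–50% GFP-positive cells.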

DAUDI = test: JNG assay, co-culture with DAUDI cells
Experimental: Cellular supernatant is collected and assayed for the induction of cytokines (e.g., IL2).
JNG (Jurkat cells expressing EGFP under an NFAT promoter) were infected with lentiviral vectors encoding different single chain and multi-chain SARs by spinfection in the presence of 8 µg/ml of Polybrene® (Sigma, Catalog no. H9268). The Jurkat-NFAT-GFP cells are engineered in such a way that the IL-2 promoter, which carries NFAT binding sites, is cloned upstream of the GFP gene. These cells have been used to study signaling via TCR and CAR. The different SARs were stably expressed in Jurkat NFAT-GFP cells by lentiviral mediated gene transfer, followed by selection with puromycin or blasticidin. No drug selection was used in case the construct lacked an antibiotic resistance gene. The SAR-expressing Jurkat-NFAT-GFP cells were cocultured with the target cells at E:T ratio of approximately 1:2 for approximately 4 hours to 18 hours. When the interaction between SIRs and their target antigen results in activation of the NFAT pathway, GFP expression is induced. […] GFP expression was monitored by FACS analysis. The Jurkat-NFAT-GFP (parental) cells were used as control. The structure of different constructs can be determined based on their names. […] The sequence of the other constructs in the table can be similarly determined from their names and by referring to the different Tables of this disclosure that provide the names and SEQ ID NO of the different modules. Alternatively, the composition and modular architecture of the different SAR constructs can be determined from their sequences by bioinformatics tools, including using nucleic acid and amino acids homology searches. A SAR is considered positive in the assay in case the SAR expressing Jurkat-NFAT-GFP cells show greater % GFP positive cells when cultured with the target cell line as compared to parental Jurkat-NFAT-GFP cells. […] In general, the number +/-, +, 2+, 3+, 4+, 5+ refer to approximately 5%, 10%, 20%, 30%, 40% and 50% GFP positive cells. […]

Nalm6 cells = test: JNG assay, co-culture with Nalm6 cells; conditions: co-culture with Nalm6
How it was run: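 Drug-selected populations of SAR-expressing Jurkat-NFAT-GFP cells meet target cells (about 1:2 E:T) for roughly 4–18 h. Flow cytometry gives % GFP+ cells, graded +/- to 5+ (≈5% to ≈50%) relative to the parental control.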

RAJI cells = test: JNG assay, co-culture with RAJI cells; conditions: JNG cells expressing construct, co-culture with Raji
How it was run: as §1

RS;411 = test: JNG assay, co-culture with RS;411 cells; conditions: co-culture with RS411
How it was run: as §1

RAJI-CD19-KO cells = test: JNG assay, co-culture with RAJI-CD19-KO cells; conditions: co-culture with Raji-CD19-KO
How it was run: as §1

LoVo = test: JNG NFAT-GFP assay, co-culture with LoVo cells

| Molecule | NFAT-GFP ASSAY: L363 (L363 cells) | NFAT-GFP ASSAY: Daudi (DAUDI) | NFAT-GFP ASSAY: Nalm6 (Nalm6 cells) | NFAT-GFP ASSAY: Raji (RAJI cells) | NFAT-GFP ASSAY: RS411 (RS;411) | NFAT-GFP ASSAY: Raji-CD19-KO (RAJI-CD19-KO cells) | NFAT-GFP ASSAY: LoVo (LoVo) |
| --- | --- | --- | --- | --- | --- | --- | --- |
| 22003 (protein) MALPVTALLLPLALLLHAARPLEGKPIPNPLLGLDSTGSGEDLKNVFPPEVAVFEPSKAEIAHTQKATLVCLATGFYPDHVELSWWVNGKEVHSGVCTDPQPLKEQPALNDSRYCLSSRLRVSATFWQNPRNHFRCQVQFYGLSENDEWTQDRAKPVTQIVSAEAWGRADCGITSASYHQGVLSATILYEILLGKATLYAVLVSALVLMAMVKRKDSRGRAKRSGSGATNFSLLKQAGDVEENPGPTSTMALPVTALLLPLALLLHAARPQLQLQESGPGLVKPSETLSLTCTVSGDSISSGDYYWGWIRQPPGKGLEWIGHIYYSGVTYYNPSLKSRVTISVDTSRNQFSLKLSSVTAADTAVYYCTREDSSNWRSRGQGTLVTVSSLESGGGGSFEEVQLLESGGGLVQPGGSLRLSCAASGFTFSSYAMSWVRQAPGKGLEWVSSISGSGDYIYYADSVKGRFTISRDISKNTLYLQMNSLRAEDTAVYYCAKEGTGANSSLADYRGQGTLVTVSSTREQKLISEEDGSGIQNPDPAVYQLRDSKSSDKSVCLFTDFDSQTNVSQSKDSDVYITDKCVLDMRSMDFKSNSAVAWSNKSDFACANAFNNSIIPEDTFFPSSDVPCDVKLVEKSFETDTNLNFQNLSVIGFRILLLKVAGFNLLMTLRLWSSRAKRSGSGVKQTLNFDLLKLAGDVESNPGPSRGHMTEYKPTVRLATRDDVPRAVRTLAAAFADYPATRHTVDPDRHIERVTELQELFLTRVGLDIGKVWVADDGAAVAVWTTPESVEAGAVFAEIGPRMAELSGSRLAAQQQMEGLLAPHRPKEPAWFLATVGVSPDHQGKGLGSAVVLPGVEAAERAGVPAFLETSAPRNLPFYERLGFTVTADVEVPEGPRTWCMTRKPGA | + (refer to approximately 5%, 10%, 20%, 30%, 40% and 50% GFP positive cells) | +/- (refer to approximately 5%, 10%, 20%, 30%, 40% and 50% GFP positive cells) | +/- (refer to approximately 5%, 10%, 20%, 30%, 40% and 50% GFP positive cells) | + (refer to approximately 5%, 10%, 20%, 30%, 40% and 50% GFP positive cells) |  |  |  |
| 22118 (protein) MALPVTALLLPLALLLHAARPEVQLVESGGGLVQPGGSLRLSCTFSGGTFSSYTMGWFRQAPGKEREFVAEVRWGGVTTYSNSLKDRFSISEDSVKNAVYLQMNSLKPEDTAVYYCAAVRQMYMTVVPDYWGQGTLVTVSSSGGGGSDIQMTQSPSSLSASVGDRVTITCKASDHINNWLAWYQQKPGKAPKLLIYGATTLETGVPSRFSGSGSGTDFTLTISSLQPEDFATYYCQQSWNTPWTFGQGTKVEIKRLEDLKNVFPPEVAVFEPSEAEISHTQKATLVCLATGFYPDHVELSWWVNGKEVHSGVCTDPQPLKEQPALNDSRYCLSSRLRVSATFWQNPRNHFRCQVQFYGLSENDEWTQDRAKPVTQIVSAEAWGRADCGFTSESYQQGVLSATILYEILLGKATLYAVLVSALVLMAMVKRKDSRGRAKRSGSGATNFSLLKQAGDVEENPGPTSMDWIWRILFLVGAATGAHSFEVQLVESGGGLVQPGGSLRLSCAASGYAFSSYWVNWVRQAPGKGLEWVAQIYPGDGDTNYNGKFKGRFTISRDNSKNTLYLQMNSLRAEDTAVYYCARSITTVVGCAMDYWGQGTLVTVSSTRIQNPDPAVYQLRDSKSSDKSVCLFTDFDSQTNVSQSKDSDVYITDKCVLDMRSMDFKSNSAVAWSNKSDFACANAFNNSIIPEDTFFPSPESSCDVKLVEKSFETDTNLNFQNLSVIGFRILLLKVAGFNLLMTLRLWSSRAKRSGSGVKQTLNFDLLKLAGDVESNPGPSRGHMTEYKPTVRLATRDDVPRAVRTLAAAFADYPATRHTVDPDRHIERVTELQELFLTRVGLDIGKVWVADDGAAVAVWTTPESVEAGAVFAEIGPRMAELSGSRLAAQQQMEGLLAPHRPKEPAWFLATVGVSPDHQGKGLGSAVVLPGVEAAERAGVPAFLETSAPRNLPFYERLGFTVTADVEVPEGPRTWCMTRKPGA |  | 3+ (refer to approximately 5%, 10%, 20%, 30%, 40% and 50% GFP positive cells) | 3+ (refer to approximately 5%, 10%, 20%, 30%, 40% and 50% GFP positive cells) | 3+ (refer to approximately 5%, 10%, 20%, 30%, 40% and 50% GFP positive cells) | 3+ (refer to approximately 5%, 10%, 20%, 30%, 40% and 50% GFP positive cells) | 2+ (refer to approximately 5%, 10%, 20%, 30%, 40% and 50% GFP positive cells) |  |
| 22004 (protein) MALPVTALLLPLALLLHAARPLEGKPIPNPLLGLDSTGSGEDLKNVFPPEVAVFEPSKAEIAHTQKATLVCLATGFYPDHVELSWWVNGKEVHSGVCTDPQPLKEQPALNDSRYCLSSRLRVSATFWQNPRNHFRCQVQFYGLSENDEWTQDRAKPVTQIVSAEAWGRADCGITSASYHQGVLSATILYEILLGKATLYAVLVSALVLMAMVKRKDSRGRAKRSGSGATNFSLLKQAGDVEENPGPTSTMALPVTALLLPLALLLHAARPQLQLQESGPGLVKPSETLSLTCTVSGDSISSGDYYWGWIRQPPGKGLEWIGHIYYSGVTYYNPSLKSRVTISVDTSRNQFSLKLSSVTAADTAVYYCTREDSSNWRSRGQGTLVTVSSLESGGGGSFEQVQLVESGGGLVQPGGSLRLSCAASGFTFTNHAMSWVRQAPGKGLELVSSISGNGRTTYYADSVKGRFTISRDISKNTLDLQMNSLRAEDTAVYYCAKDGGETLVDSRGQGTLVTVSSTREQKLISEEDGSGIQNPDPAVYQLRDSKSSDKSVCLFTDFDSQTNVSQSKDSDVYITDKCVLDMRSMDFKSNSAVAWSNKSDFACANAFNNSIIPEDTFFPSSDVPCDVKLVEKSFETDTNLNFQNLSVIGFRILLLKVAGFNLLMTLRLWSSRAKRSGSGVKQTLNFDLLKLAGDVESNPGPSRGHMTEYKPTVRLATRDDVPRAVRTLAAAFADYPATRHTVDPDRHIERVTELQELFLTRVGLDIGKVWVADDGAAVAVWTTPESVEAGAVFAEIGPRMAELSGSRLAAQQQMEGLLAPHRPKEPAWFLATVGVSPDHQGKGLGSAVVLPGVEAAERAGVPAFLETSAPRNLPFYERLGFTVTADVEVPEGPRTWCMTRKPGA | + (refer to approximately 5%, 10%, 20%, 30%, 40% and 50% GFP positive cells) | +/- (refer to approximately 5%, 10%, 20%, 30%, 40% and 50% GFP positive cells) | +/- (refer to approximately 5%, 10%, 20%, 30%, 40% and 50% GFP positive cells) | + (refer to approximately 5%, 10%, 20%, 30%, 40% and 50% GFP positive cells) |  |  |  |
| 22005 (protein) MALPVTALLLPLALLLHAARPLEGKPIPNPLLGLDSTGSGEDLKNVFPPEVAVFEPSKAEIAHTQKATLVCLATGFYPDHVELSWWVNGKEVHSGVCTDPQPLKEQPALNDSRYCLSSRLRVSATFWQNPRNHFRCQVQFYGLSENDEWTQDRAKPVTQIVSAEAWGRADCGITSASYHQGVLSATILYEILLGKATLYAVLVSALVLMAMVKRKDSRGRAKRSGSGATNFSLLKQAGDVEENPGPTSTMALPVTALLLPLALLLHAARPEVQLVESGGGLVQPGGSLRLSCAASGFNIKDTCIGWVRRAPGKEEELVAKICKYSGHTRYADSVKGRFTISADTSKNTAYLQMNSLRAEDTAVYYCAAVSVRDGHYNYWGQGTTVTVSSTREQKLISEEDGSGIQNPDPAVYQLRDSKSSDKSVCLFTDFDSQTNVSQSKDSDVYITDKCVLDMRSMDFKSNSAVAWSNKSDFACANAFNNSIIPEDTFFPSSDVPCDVKLVEKSFETDTNLNFQNLSVIGFRILLLKVAGFNLLMTLRLWSSRAKRSGSGVKQTLNFDLLKLAGDVESNPGPSRGHMTEYKPTVRLATRDDVPRAVRTLAAAFADYPATRHTVDPDRHIERVTELQELFLTRVGLDIGKVWVADDGAAVAVWTTPESVEAGAVFAEIGPRMAELSGSRLAAQQQMEGLLAPHRPKEPAWFLATVGVSPDHQGKGLGSAVVLPGVEAAERAGVPAFLETSAPRNLPFYERLGFTVTADVEVPEGPRTWCMTRKPGA |  |  |  |  |  |  | +/- (refer to approximately 5%, 10%, 20%, 30%, 40% and 50% GFP positive cells) |

— patent US20230212319A1, “NOVEL ANTIGEN BINDING DOMAINS AND SYNTHETIC ANTIGEN RECEPTORS INCORPORATING THE SAME” (University of Southern California, priority 2020, published 2023)
